Results taken from US20030144176.

How the values were obtained:
[1] = target: glutathione-S-transferase (GST) fused to MEF2C amino acids 204-321
[2] = target: GST-ERK5KMΔ, a truncated, catalytically inactive form of ERK5 with lysine-83 mutated to methionine, fused to glutathione-S-transferase

| Protein | ERK5 immunoprecipitation (IP) kinase assay: 32P phosphorylation of GST-MEF2C [1] | IP kinase assay: 32P phosphorylation of GST-ERK5KM substrate by immunoprecipitated HA-MEK5 [2] |
| --- | --- | --- |
| endogenous ERK5 immunoprecipitated from neonatal rat cardiomyocytes (protein) AEPLKEEDGEDGSGEPPGRVKAEPVHTAASVVAKNLALLKARSFDVTFDVGDEYEIIETIGNGAYGVVSSARRRLTGQQVAIKKIPNAFDVVTNAKRTLRELKILKHFKHDNIIAIKDILRPTVPYGEFRSVYVVLDLMESDLHQIIHSSQPLTLEHVRYFLYQLLRGLKYMHSAQVIHRDLKPSNLLVNENCELKIGDFGMARGLCTSPAEHQYFMTEYVATRWYRAPELMLSLHEYTQAIDLWSVGCIFGEMLARRQLFPGKNYVHQLQLIMMVLGTPSPAVIQAVGAERVRAYIQSLPPRQPVPWETVYPGADRQALSLLGRMLRFEPSARISAAAALRHPFLAKYHDPDDEPDCAPPFDFAFDREALTRERIKEAIVAEIEDFHARREGIRQQIRFQPSLQPVASEPVCPDVEMPSPWAPSGDCAMESPPPALPPCSGPAPDTVDLTLQPAPPASELAPPKREGAISDNTKAALKAALLKSLRSRLRDGPSAPLEAPEPRKPVTAQERQREREEKRRRRQERAKEREKRRQERERKERGAGTLGGPSTDPLAGLVLSDNDRSLLERWTRMARPPVPAPAPAPAPTPKPSSAQPTSPPNGPVSQSTAPLQPAGSIPGPASQPVCPPPGPVPQPAGPVPAPLQTAPSTSLLASQSLVPPSGLPGSGAPEVLPYFPSGPPPPDPGLTPQPSTSESPDVNLVTQQLSKSQVEDPLPPVFSGTPKGSGAGYGVGFDLEEFLNQSFDMGVADGPQDGQADSASLSASLLADWLEGHGMNPADIESLQREIQMDSPMLLSDLPDLQEP | Phosphorylation of GST-MEF2C indicated that ERK5 was activated 2-4 fold by hypertrophic agents | – |
| HA-tagged activated MEK5 (MEK5DD), MEK5β splice isoform with aspartate substitutions of serine-222 and threonine-226 (protein) MEQQVNGQLIEPLQIFPRACKPPGERNIHGLKVNTRAGPSQHTSPVVSDSLPSNSLKKSSAELRKILANGQMNEQDIRYRDTLGHGNGGTVYKAYHVPSGKILAVKVILLDITLELQKQIMSELEILYKCDSSYIIGFYGAFFVENRISICTEFMDGGSLDVYRKIPEHVLGRIAVAVVKGLTYLWSLKILHRDVKPSNMLVNTSGQVKLCDFGVSTQLVNDIAKDYVGTNAYMAPERISGEQYGIHSDVWSLGISFMELALGRFPYPQIQKNQGSLMPLQLLQCIVDEDSPVLPLGEFSEPFVHFITQCMRKQPKERPAPEELMGHPFIVQFNDGNATVVSMWVCRALEERRSQQGPP | – | AdMEK5DD produced a constitutively active kinase |
| HA-tagged wild-type MEK5 (MEK5WT), MEK5β splice isoform (protein) MEQQVNGQLIEPLQIFPRACKPPGERNIHGLKVNTRAGPSQHTSPVVSDSLPSNSLKKSSAELRKILANGQMNEQDIRYRDTLGHGNGGTVYKAYHVPSGKILAVKVILLDITLELQKQIMSELEILYKCDSSYIIGFYGAFFVENRISICTEFMDGGSLDVYRKIPEHVLGRIAVAVVKGLTYLWSLKILHRDVKPSNMLVNTSGQVKLCDFGVSTQLVNSIAKTYVGTNAYMAPERISGEQYGIHSDVWSLGISFMELALGRFPYPQIQKNQGSLMPLQLLQCIVDEDSPVLPLGEFSEPFVHFITQCMRKQPKERPAPEELMGHPFIVQFNDGNATVVSMWVCRALEERRSQQGPP | – | Some kinase activity was also observed with the AdMEK5WT virus |
